# Laboratory results reported in the nanobody polyreactivity screen of Harvey et al. (2022).
# Assay: yeast display, Sf9 membrane polyspecificity reagent, FACS + sequencing; frameworks hold sequencing errors
# Method in brief: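 Nanobodies from a synthetic yeast display library (Saccharomyces cerevisiae BJ5465), induced 36–48 hours with galactose, were stained 1 hour at 4 °C with 10% biotinylated, detergent-solubilized Sf9 membrane reagent, enriched on streptavidin microbeads, then FACS-sorted. Anti-HA (expression) and streptavidin (reagent binding) fluorescence set low and high (top ~1%) gates. Polyreactivity labels come from the gate of origin. Genes were colony-PCR amplified, MiSeq 2 × 250 sequenced and filtered by CDR length.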
row,Sequence,polyreactivity (PSR sort gate)
1,QVQIVESGGGLVQPGGSLRLSCAASGSTFTRNAMGWYRQAPGKERELVAAISFSGGSTYYADSVKGRFTISRDTAKNTVYLQMNSLKPEDTAVYYCAAEEGRVFSGGYDYWGQGTQVTVSS,high polyreactivity
2,QVQLVESGGGLVQAGGSLRLSCAASGSISGYYAMGWSRQAPGKERELVASIRYTGARTYYADSVKGRFTISRDNAKNTVYLQMNSLKPEDTAVYYCNAYTRYPFYFVTSKYDYWGQGTQVTVSS,low polyreactivity
3,QVHLVESGGGLVQAGGSLRLSCAASGSNFVGNAMGWYRQAPGKERELVATISNSGGRTYYADSVKGRFTISRDNAKNTVYLQMNSLKPEDTAVYYCAADHPAFGPGYSFDFWGQGTQVTVSS,low polyreactivity
4,QVQLVESGGGLVQAGGSLRLSCAASGRIFVHYAMGWYRQAPGKERDLVAAISMSGGNTYYADSVKGRFTISRDNEKNTVYLQMNSLKPEDTAVYYCARAPYYVASGHRRVLRPTYEYWGQGTQLTVSS,low polyreactivity
5,QVQLEESGGGLVQAGRSLRFSCAASGRIFPWYTMGWYRPAPGKERELVAVISSGGRTHYADSVKGRFTISRDNAKNTVYLQMNSLKPEDTAVYYCAGESRYQRYDYWRQGTQVTVSS,high polyreactivity
6,QVQLVESGGGLVQAGGSLRLSCAASGRIFIKNAMGWNRQAPGKERELVAAISDSGDSTYYADSVKGRFTISRDNAKNSVYLQMNSLKPEDTAVYYCAADGADHRSEMYYWGQGTQVTVSS,low polyreactivity
7,QVQLVESGGGLVQAGGSLSLTCAAYGRTITRYVMGWYRQAPGKERELVAYISRGGSTNYADSVKGRFTISRDNAKNTVYLQMNSLKPEDSAVYYCAARFSWGGYYSTTYPLTHDYWGQGTQVNVSS,high polyreactivity
8,QVQLVESGGGLVQAGGSLRLSCAASGRTLRYNTKGWYRQAPGKERELVADISWTGGSTYYADSVKGRFTISRDNAKNTVYLQMNSLKPEDTAVYYCAADEWWYPWYDYWGQGTQVTVSS,high polyreactivity
9,QVQLVEAGGGLVQAGGSLRLSCAASGFIFSSNAMGWYRQAPGKERELVAGITASGVSTYYADSVKGRFTISRDNAKNTVYLQMNSLKPEDTAVYDCAALGLYYYFYSQYIAWDDYWGQGTQVTVSS,low polyreactivity
10,QVQLVESGGGLVQAGGSLRLSCDASGSILRYYAMGWYRQAPGKERELVADISTSGGSTYYADSVKGRFTISRDNAKNTVYLQMNSLKPEDTAVYYCAKPWYSSGFDYWGQGTQVTVSS,high polyreactivity
11,QVQLVESGGGLVQAGGSLRLSCAASGSIFWYYAMGWYRQAPGKERELVASISSGGSTTYADSVKGRFTISCDNAKNTVYLQMISLKPEDTAVYYCNADYFGGGDYWGQGTQVTVSS,low polyreactivity
12,QVQLVESGGGLVQAGGSLRLSCAASGGTFYSYAMGWYRQAPGTERELVAAISRRGGSTYYADSVKGRFTISLDNAKNTVYLQMNSLKPEDTAVYYCNTYIYQVRDDYWGQGTQVTVSS,high polyreactivity
13,QVQLVESGGGLVQSGGSLRLSCAASGRTLGYNAMGWYRQAPGKERELVASINSGVSTNYADSVKGRFTISRDNAKNTVYLQMNSLKPEDTAVYYCAAEKYGRGDGREGWEYDYWGQGTQVTVSS,low polyreactivity
14,QVQLVESGGGLVQSGGSLRLSCAASGRIIKSYAMGRYRQAPGKERELVAAISRSGGRTYYADSVKGRFSISRDNAKNTVYLQMISLKPEDTAVYYCAATTFVAPSWGQGTQVTVSS,low polyreactivity
15,QVQLVESGGGLVQAGGSLRLSCAASGTFSYYAMGWYRQAPGKERELVATISWSGDSTYYADSVKGRFTISRDNAKNTVYLQMNSLNPEDTAVYYCNADHFQWGAGYDYWGQGTQVTVSS,low polyreactivity
16,QAQLQESGGSLVKAGGGLRLSCAASGYISVGSVMGRYRQAPSKERELVASIDQGANTNYADSVKGRFTISRDNGKNNVYLQMNSLKPEDTAVYYCATETTYILNYWGQGTEVTVSS,low polyreactivity
17,QVQLVESGGGLVQAGGSLRLSCAASGSTFDSYGMGWYRQAPGKERELVGSISSRGGSTYYADSVKGRFTISRDNAKNTVYLQMNSLKPEDTAVYYCAAEWLSWFHGYGMYYWGQGTQVTVSS,low polyreactivity
18,QVQLVESGGGLVQAGGSLRLSCAASGSTFNDNAMGWYRQAPGKERELVAGISYSGGSTYYADSVKGRFTISRDHAKNTVYLQMNSLKPEDTAVYYCNADVTGLSQFGYWGQGTQVTVSS,low polyreactivity
19,QVQLVESGGGLDQAGGSLRLSCAASGFIFFRYAMGWYRQAPGKERELVAGNNGSDGSTYYADSVKGRFTISRDNAKNTVYLQMNSLKPEDTAVYYCAAEGGFSPQPYNLYYATPREDYWGQGTQVTVSS,low polyreactivity
20,QVQLVESGGGLVQAGGSLRLSCAASGRTFRYNAMGWYRQAPGKERELVAAISASGGSTYYADSVKGRFTISRDNAKNTVYLQMNSLKPEDTAVYYCATYYRVGYDYWGQGTQVTVSS,high polyreactivity
21,QVQLVESGGGLAQAGGSLRLTCAASGNTFPLYPMGWYRQAPGKERELFAAISQRGGSTYYSDSVKGRFTISRDYAKNTVYLQMNSLKPEDTAFYYCAATWADEYQYRRYYYWGQGTQVTVSS,high polyreactivity
22,QVQLVESGGGLVQAGGSLRLSCAASGRNFFTYAMGWYRQAPGKERELVASITGSGGSTYYADSVKGRFTISRDNAKYTVYLQMNSLKPEDTAVYYCAAALFRRQLYRKFYYWGQGTQVTVSS,low polyreactivity

row,Sequence,polyreactivity (PSR sort gate)
1,QVQLVESGGGLVQAGGSLRLSCAASGIIFFSNAMGWYRQAPAQEMELVAAITGGSSTNYADSVKGRFTISRDNAKNTVYLQMNSLKPEDTAVYYCNAPTKSTPRSEPIPYYEFDYWGQGTQVTVSS,low polyreactivity
2,QVQPQESAGGLVQAGGSLLQSSAASAYIFPYYSMGWYRQAPGKERGLVACIAAGTTTNYADSVKGRFTISRDNAKNTVYLQMKSLKPEDAAVYYCAALKAFNTGHWYWGQGTQVTVSS,low polyreactivity
3,QVQLVESGGGLVQAGGSLRLSCAASGITFRRYTMGWYRQAPGKERELVASISSTGSTNYADSVKGRFTISRDNAKNTVYLQMNSLKPEDTAVYYCAARRPYPYVGYEYWGQGTQVTVSS,high polyreactivity
4,QVQLVESGGGLVQAGGSLRLSCAASGSTFNINAMGWYRPAPRKERELVARIRASGASTYYADSVKGRFTISRDNAKITVYLQMNSLKPDDTAVYYCAAYTYSFRANHDYWGQGTQVTVSS,high polyreactivity
5,QVQLVESGGGLVQAGGSLRLSCAASGSTFRYYVMGWYRTAPGKERDLVAVISGSGGYTYYADSVKGRFTISRDNAKNTVYLQMNSLKPEDTAVYYCAAARKFIPGRGRTYDSWGQGTQVTVSS,high polyreactivity
6,QVQLVVSGVGLVQAGGSLRLSCAASGRIFSYYAMGWYRQAPGKEREFVATNSGSGGSTYYADSVKGRFTISRDNAKNTVYLEMNSLKPEDTAVYYCKARSYSYWSNWRNAGSYDYWGQGTQVTVSS,high polyreactivity
7,QVQLVESGGGLVQAGGSLRLSCAASGITFLYYAMGWYRQAPGKERELVAAISGGGASTYYADSVKGRFTSSRDNAKNTVYLQMNSLKPEDTAVYDCAAGYRDFFRARFGYWGQGTQVTVAS,high polyreactivity
8,QVQLVESGGGLDQAGGSVRLSCAASGSTFDNYAMGWYRQAPGKEREWVAVISRSGTSTYYADSVKGRFTISRDNAKNTVYLQMNSLKPEDTAVYYCASAPSQVYRARFYYWGQGTQVTVSS,high polyreactivity
9,QVQLVESGGGLVQAGGSLRLSCAATGRTFSEYVMGWYRQAPGKERELVAAISDRGTRTYYSDSVKGRFTISRDNAKNNVYLPMNSLKPEDTAVYYCYAGLTYNHDPYDYWGQGTQVTVSS,high polyreactivity
10,QVQLVESGGGLVQAGGSLRLSCAASGYIFRHYAMGWYRQAPGKERELVAAISGRGGSTYYADSVKGRFTISRDNAKNTVYLQMNSLKPEDTAVYYCAKDRKAVGDFYYWGQGTQVTVSS,high polyreactivity
11,QVQLVESGGGLVQAGGSLRLSCAASGSILSGYAMGWYRQAPGKERELVAAITSGGDTNYADSVKGRFTISRDNAKNTVYLQMNSLKPEDTAVYYCNRGGDFRIAYYDPMDYWGQGTQVTVSS,low polyreactivity
12,QVQLVESGVGLVQAGGSLRLICAASGSTFGVYAMGWYRQAPGKERELVARITSGGSTYYADSVKGRFTISRDNAKNTVYLQMNSLKPEDTAVYYCAAVYRRTRSWKFDYWGQGTQVTVSS,high polyreactivity
13,QFQLVESGGGLVQAGGSLRLSCAASGFIFKPYTMGWYRQAPGKERELVATITFSGGSTYYADSVKGRFTNSRDNAKNTVYLQMNSLKPEDTAVYYCAAPRFYRGYAIYDYWGQGTQVTVSS,low polyreactivity
14,QVQRVESGGGLVQAGGSLRLSCAASGRTFGPNAMGCYRQSPGKERELVAAITSGGRTYYADSVKGRFTISRDNAKNTVYLQMNSLKPEDTAVYYCAASYRWRSSGKGKYDYWGQGTQVTVSS,high polyreactivity
15,QVQHVESGGGLVQAGGSLRLSCAASGSTFSHYAMGWYRQAPGKERELVASINSAGSTNYADSVKGRFTISRDNAKNTVYLQMNSLKPEDTAVYYCNTEVQVYSYNYWGQGTQVTVSS,low polyreactivity
16,QVQLVESRGGLVQAGGSLRLRCAASGSTFGYYAMGWYRQAPGKERELVAGISSGGTTKYADSVKGRFTISRDNEKNTVYLQMNSLKPEDTAVYYCAATVRVYDYWGQGTQVTLSS,high polyreactivity
17,QVQLVESGVGLVHAGGSLRLSCAASGSTFYANTMGWYIQAPGKERELVAAISQSGGSTYYADSVKGRFSISRDNAKNTVYLQMNSLKPEDTAVYYCAARRLPRKERKLYYWGQGTQVTVSS,high polyreactivity
18,QVQLVESGGGLVQAGGSLRLSCAASGFIFGLYGMGWYRPAPGKERELVAAISTSSGITYYADSVKGRFTISRDNAKNTVYLQMNSLKPEDTAVYYCAARGHYYDYWGQGTQVTVSS,low polyreactivity
19,QVQLVESGGGLVQAGGSLRLSCAASGFILAYYEMGWYRQAPGKERELVAAISIGSSTDYADSVKGRFTISRDNAKNTVYLQMNSLKPEDTAVYYCAARDYYYEYDYWGQGTQVTVSS,low polyreactivity
20,QVQLVESGGGLVQAGGSLRLSCAASGSIISNYVKGWYRQAPGKERELVAAITRRGGRTYYADSVKGRFTISRDNAKNTVYLQMNSLKPEDTAVYYCAAQTISYSYPIIRYDYWGQGTQVTVSS,low polyreactivity
21,QVQLVESGGGLVQAGGSLRLSCAASGSISAPNAMGWYRQAPGKERALVATINSGGRTNYADSVKGRFTISRDNAKNTVYFQMNSLKPEDTAVYYCNTVVRGAYTYGDVSKYDYWGHGTQVTVSS,low polyreactivity
